In publication PMC7398557 (Nature, 2020):

Target: the molecule itself
Test: cryo-EM structure

B1: human acyl-CoA:diacylglycerol acyltransferase 1 (DGAT1) (enzyme)
chain: MGDRGSSRRRRTGSRPSSHGGGGPAAAEEEVRDAAAGPDVGAAGDAPAPAPNKDGDAGVGSGHWELRCHRLQDSLFSSDSGFSNYRGILNWCVVMLILSNARLFLENLIKYGILVDPIQVVSLFLKDPYSWPAPCLVIAANVFAVAAFQVEKRLAVGALTEQAGLLLHVANLATILCFPAAVVLLVESITPVGSLLALMAHTILFLKLFSYRDVNSWCRRARAKAASAGKKASSAAAPHTVSYPDNLTYRDLYYFLFAPTLCYELNFPRSPRIRKRFLLRRILEMLFFTQLQVGLIQQWMVPTIQNSMKPFKDMDYSRIIERLLKLAVPNHLIWLIFFYWLFHSCLNAVAELMQFGDREFYRDWWNSESVTYFWQNWNIPVHKWCIRHFYKPMLRRGSSKWMARTGVFLASAFFHEYLVSVPLRMFRLWAFTGMMAQIPLAWFVGRFFQGNYGNAAVWLSLIIGQPIAVLMYVHDYYVLNYEAPAAEA
stoichiometry N: 2
